From patent US20250250357A1 (NANJING ZAIMING PHARMACEUTICAL, published 2025)

Tests used:
human MSLN-R3 protein [1] = target: T1, human MSLN-R3 protein (human, UniProt Q13421 487-598); assay: ELISA on coated antigen, antibody 0.01 nM
T1 construct: also called hMSLN-R3

[2] = target: T2, human MSLN-hFc protein (Acro, Cat. No. MSN-H5253) (human, UniProt Q13421 296-580); assay: ELISA on coated antigen, antibody 1 nM
T2 construct: the method names the coated protein as human MSLN-hFc (Acro); also called human MSLN full-length protein
T2 sequence (Q13421 other isoform, or with tags, fused parts or gaps limits assumed): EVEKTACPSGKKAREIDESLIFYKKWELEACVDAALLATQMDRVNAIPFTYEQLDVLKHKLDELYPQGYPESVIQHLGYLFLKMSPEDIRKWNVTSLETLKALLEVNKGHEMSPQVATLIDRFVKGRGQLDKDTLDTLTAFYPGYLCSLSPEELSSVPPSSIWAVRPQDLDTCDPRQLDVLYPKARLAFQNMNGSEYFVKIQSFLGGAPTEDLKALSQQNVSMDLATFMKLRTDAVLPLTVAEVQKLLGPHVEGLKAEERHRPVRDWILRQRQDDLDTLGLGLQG

[3] = target: T2, human MSLN-hFc protein (Acro, Cat. No. …); assay: ELISA on coated antigen, antibody 0.1 nM
[4] = target: T2, human MSLN-hFc protein (Acro, Cat. No. …); assay: ELISA on coated antigen, antibody 0.01 nM
human MSLN-R3 protein [5] = target: T1, human MSLN-R3 protein; assay: ELISA on coated antigen, antibody 0.001 nM
human MSLN-R3 protein [6] = target: T1, human MSLN-R3 protein; assay: ELISA on coated antigen, antibody 0.0001 nM
[7] = target: T2, human MSLN-hFc protein (Acro, Cat. No. …); assay: ELISA on coated antigen, antibody 100 nM
[8] = target: T2, human MSLN-hFc protein (Acro, Cat. No. …); assay: ELISA on coated antigen, antibody 0.001 nM
[9] = target: T2, human MSLN-hFc protein (Acro, Cat. No. …); assay: ELISA on coated antigen, antibody 0.0001 nM
human MSLN-R3 protein [10] = target: T1, human MSLN-R3 protein; assay: ELISA on coated antigen, antibody 100 nM
human MSLN-R3 protein [11] = target: T1, human MSLN-R3 protein; assay: ELISA on coated antigen, antibody 0.1 nM
[12] = target: T2, human MSLN-hFc protein (Acro, Cat. No. …); assay: ELISA on coated antigen, antibody 10 nM
human MSLN-R3 protein [13] = target: T1, human MSLN-R3 protein; assay: ELISA on coated antigen, antibody 1 nM
human MSLN-R3 protein [14] = target: T1, human MSLN-R3 protein; assay: ELISA on coated antigen, antibody 10 nM
[15] = target: T3, human MSLN-R3 protein (Met487-Ser606 of NCBI AAH09272.1) expressed on HEK293T-hMSLN-R3 cells (human, UniProt Q13421 487-606); assay: FACS on HEK293T-hMSLN-R3 cells
T3 construct: also called Region3
T3 sequence (Q13421 495-614): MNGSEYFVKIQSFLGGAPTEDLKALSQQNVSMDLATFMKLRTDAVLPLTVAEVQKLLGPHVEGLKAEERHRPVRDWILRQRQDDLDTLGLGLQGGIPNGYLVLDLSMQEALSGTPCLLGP

[16] = target: T4, human MSLN full-length protein (NCBI: AAH09272.1) expressed on HEK293T-hMSLN-B8 cells (human, UniProt Q13421 296-598); assay: FACS on HEK293T-hMSLN-B8 cells
T4 construct: Whole encoded precursor
T4 sequence (Q13421 other isoform, or with tags, fused parts or gaps limits assumed): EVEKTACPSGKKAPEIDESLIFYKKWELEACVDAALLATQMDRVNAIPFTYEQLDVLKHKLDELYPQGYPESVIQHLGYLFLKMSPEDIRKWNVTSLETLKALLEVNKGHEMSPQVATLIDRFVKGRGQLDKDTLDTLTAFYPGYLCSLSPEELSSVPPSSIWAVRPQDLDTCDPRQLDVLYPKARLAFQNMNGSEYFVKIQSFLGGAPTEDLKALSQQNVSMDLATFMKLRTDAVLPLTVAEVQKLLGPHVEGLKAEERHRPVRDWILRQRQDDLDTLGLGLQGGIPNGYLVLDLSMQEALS

[17] = target: T5, human MSLN protein endogenously expressed on OVCAR3 tumor cells (human, UniProt Q13421 296-598); assay: FACS on OVCAR3 cells
T5 construct: whole, on cells; Endogenous target on OVCAR3 cells; kept apart from the recombinant full-length construct; also called mesothelin
T5 sequence (Q13421 other isoform, or with tags, fused parts or gaps): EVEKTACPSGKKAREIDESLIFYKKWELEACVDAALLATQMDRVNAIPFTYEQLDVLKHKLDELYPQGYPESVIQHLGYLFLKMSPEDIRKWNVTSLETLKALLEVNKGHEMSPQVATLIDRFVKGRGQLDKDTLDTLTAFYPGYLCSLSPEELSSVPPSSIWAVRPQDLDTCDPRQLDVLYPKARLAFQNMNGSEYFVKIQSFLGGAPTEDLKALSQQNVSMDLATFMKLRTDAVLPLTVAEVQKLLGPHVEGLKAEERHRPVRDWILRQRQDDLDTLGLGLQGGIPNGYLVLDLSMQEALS

T1 sequence (Q13421 495-606, form in doubt): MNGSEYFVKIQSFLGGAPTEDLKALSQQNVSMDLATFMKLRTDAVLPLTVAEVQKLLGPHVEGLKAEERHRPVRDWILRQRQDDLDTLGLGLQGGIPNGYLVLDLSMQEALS

B1: F7.44.20-H6 (scFv, not shown: small tags and cut ends)
scFv: EVQLVQSGAEVKKPGASVKVSCKASGYTFTDYNMDWVRQAPGQGLEWMGDINPSTGGTIYNQKFQGRVTMTEDKSTSTVYMELSSLRSEDTAVYYCARRRIGTGYFDVWGQGTTVTVSSGGGGSGGGGSGGGGSEIVLTQSPDFQSVTPKEKVTITCSASSSVISSYLSWYQQKPDQSPKLLIYRTSNLASGVPSRFSGSGSGTDYTLTINSLEAEDAATYYCHQWSSFPYTFGGGTKVEIK
notes: also called S009-F7.44.20 humanized antibody VH1a + VL2
What does the source list for B1?
OD450 (human MSLN-R3 protein [1]): 0.05 OD450; OD450 [2]: 1.95 OD450; OD450 [3]: 0.37 OD450; OD450 [4]: 0.07 OD450; OD450 (human MSLN-R3 protein [5]): 0.05 OD450; OD450 (human MSLN-R3 protein [6]): 0.05 OD450; OD450 [7]: 3.04 OD450; OD450 [8]: 0.05 OD450; OD450 [9]: 0.05 OD450; OD450 (human MSLN-R3 protein [10]): 2.12 OD450; OD450 (human MSLN-R3 protein [11]): 0.21 OD450; OD450 [12]: 2.91 OD450; OD450 (human MSLN-R3 protein [13]): 1.31 OD450; OD450 (human MSLN-R3 protein [14]): 2.15 OD450

B2: F7.44.20-H5 (scFv, not shown: small tags and cut ends)
scFv: EVQLVQSGAEVKKPGASVKVSCKASGYTFTDYNMDWVRQAPGQGLEWMGDINPSTGGTIYNQKFQGRVTMTEDKSTSTVYMELSSLRSEDTAVYYCARRRIGTGYFDVWGQGTTVTVSSGGGGSGGGGSGGGGSEIVLTQSPDFQSVTPKEKVTITCSASSSVISSYLSWYQQKPDQSPKLLIYRTSNLASGVPSRFSGSGSGTDFTLTINSLEAEDAATYYCHQWSSFPYTFGGGTKVEIK
notes: also called S009-F7.44.20 humanized antibody VH1a + VL1
Which results are given for B2?
OD450 (human MSLN-R3 protein [1]): 0.04 OD450; OD450 [2]: 1.3 OD450; OD450 [3]: 0.19 OD450; OD450 [4]: 0.05 OD450; OD450 (human MSLN-R3 protein [5]): 0.04 OD450; OD450 (human MSLN-R3 protein [6]): 0.05 OD450; OD450 [7]: 2.94 OD450; OD450 [8]: 0.04 OD450; OD450 [9]: 0.04 OD450; OD450 (human MSLN-R3 protein [10]): 2.27 OD450; OD450 (human MSLN-R3 protein [11]): 0.11 OD450; OD450 [12]: 3.01 OD450; OD450 (human MSLN-R3 protein [13]): 0.8 OD450; OD450 (human MSLN-R3 protein [14]): 2.05 OD450

B3: F7.44.20-H13 (scFv, not shown: small tags and cut ends)
scFv: EVQLVQSGAEVKKPGASVKVSCKASGYTFTDYNMDWVRQAPGQGLEWMGDINPSTGGTIYNQKFSGRVTMTEDKSASTVYMELSSLRSEDTAVYYCARRRIGTGYFDVWGQGTTVTVSSGGGGSGGGGSGGGGSEIVLTQSPDFQSVTPKEKVTITCSASSSVISSYLSWYQQKPDQSPKLLIYRTSNLASGVPSRFSGSGSGTDFTLTINSLEAEDAATYYCHQWSSFPYTFGGGTKVEIK
notes: also called S009-F7.44.20 humanized antibody VH2a + VL1
Which OD450 (human MSLN-R3 protein [1]) does the source give for B3 here?
Its OD450 is 0.05 OD450.

And the OD450 [2]?
Its OD450 is 0.98 OD450.

And the OD450 [3]?
Its OD450 is 0.16 OD450.

What about the OD450 [4] of the same binder?
Its OD450 is 0.06 OD450.

What about the OD450 (human MSLN-R3 protein [5]) of the same binder?
The OD450 was 0.05 OD450.

What about the OD450 (human MSLN-R3 protein [6]) of the same binder?
Its OD450 is 0.05 OD450.

What about the OD450 [7] of the same binder?
The OD450 was 3.12 OD450.

What about the OD450 [8] of the same binder?
Its OD450 is 0.06 OD450.

What about the OD450 [9] of the same binder?
The OD450 was 0.06 OD450.

And the OD450 (human MSLN-R3 protein [10])?
The OD450 was 1.94 OD450.

And the OD450 (human MSLN-R3 protein [11])?
Its OD450 is 0.08 OD450.

And the OD450 [12]?
Its OD450 is 2.81 OD450.

And the OD450 (human MSLN-R3 protein [13])?
Its OD450 is 0.45 OD450.

What about the OD450 (human MSLN-R3 protein [14]) of the same binder?
The OD450 was 1.57 OD450.

B4: S009-F2.38.12 (antibody, human IgG1, kappa, V domains shown)
VH: QVQLQQPGTELVKPGASVKLSCKASGYTFTSYWMHWVKQRPGQGLEWIGNINPSNGGTNYNEKIKNKATLTVDKSSSTAYMQLSSLTSEDSAVYYCARWNYYGNYPFDYWGQGTTLTVSS
VL: DIVMTQSQKFMSTTVGDRVSITCKASQNVGTAVAWYQQKPGQSPKLLIYSASNRYTGVPDRFTGSGSGTDFTLTISNMQSEDLADYFCQQYSSYPLTFGAGTKLELKR
notes: human-murine chimeric antibody, human IgG1/kappa constant regions
Which “Maximum mean fluorescence intensity” value [15] does the source give for B4 here?
The value was 136.

Does B4 bind [15]?
Result: no binding

And the EC50 [16]?
Its EC50 is about 0.82 nM.

And the “Maximum mean fluorescence intensity” value [16]?
The value was 97700.

And the “Maximum mean fluorescence intensity” value [17]?
Its value is 4510.

B5: S009-F2.58.8 (antibody, human IgG1, kappa, V domains shown)
VH: QVQLLQSGAELAKPGASVKLSCKASGYTFTSYWVHWVKQRPGQGLEWIGYINPNSGYTKYNQKFKDKATLTADKSSSTAYMQLSSLTYEDSAVYYCADHYYGSSRDYFDYWGQGTTLTVSS
VL: QIVLTQSPAIMSASPGEKVTMTCSASSSVSYMYWYQQRPGSSPRLLIYDTSNLASGVPVRFSGSGSGTSYSLTISRMEAEDAATYYCQQWNSYPYTFGGGTKLEIKR
notes: as for B4
What does the source list for B5?
Maximum mean fluorescence intensity [15]: 366; binding result [15]: no binding; EC50 [16]: 3.5 nM; Maximum mean fluorescence intensity [16]: 141000; EC50 [17]: 1.82 nM; Maximum mean fluorescence intensity [17]: 13100
